Reference: paper PMC9540186 (The Plant Journal, 2022)

Target: the molecule itself
Assay: SDS-PAGE of non-boiled extracts with Western blot

B1: GFP‐NtUVR8 fusion protein (full‐length Nicotiana tabacum UVR8) (receptor, UniProt A0A1S4AB85 1-441, looked up)
chain: MAADGSSERAVSRKVLLISAGASHSVALLSANVVCSWGRGEDGQLGLGDAEDRFSPTQVSALDEQQIVSVTCGADHATAYSEALKQVYSWGWGDFGRLGHGNSSDLFTPQPIKALHGICIKQIACGDSHCLAVTMEGEVQSWGRNQNGQLGLGTTEDSLVPQKIEAFKGIPVKMVAAGAEHTAAVTEDGELYGWGWGRYGNLGLGDRNDRLVPVKVSATVGEKMFMVACGWRHTICVSSSGSLYTYGWSKYGQLGHGDFEDHLFPHKVQALHDSFTSQISGGWRHTMALTADGELYGWGWNKFGQVGVGDNVDHCSPVQVKFPHDQKVILISCGWRHTLAVTERQNVFSWGRGTNGQLGHGESVDRNVPRIIEALSVDGSSGQQIGSSTSDPSAAEKSWVSPTERYAVVPNENVPKQTVTSVKGNGNDVNVPENDVKRIRL
stoichiometry N: 2
